Test results as given in paper PMC5118228 (EJNMMI Research, 2016).

Assay: in vivo
Details: male, athymic nu/nu, mouse, iv, total radioactivity
[1] = 0.03 nmol, uptake in Red blood cell
[2] = 0.1 nmol, uptake in Red blood cell
[3] = 0.3 nmol, uptake in Red blood cell
[4] = 1 nmol, uptake in Red blood cell
[5] = 3 nmol, uptake in Red blood cell

C[C@@H](O)[C@H](NC(=O)[C@@H]1CSSC[C@H](NC(=O)[C@@H](Cc2ccccc2)NC(=O)CN2CCN(CC(=O)O)CCN(CC(=O)O)CCN(CC(=O)O)CC2)C(=O)N[C@@H](Cc2ccc(O)cc2)C(=O)N[C@H](Cc2c[nH]c3ccccc23)C(=O)N[C@@H](CCCCN)C(=O)N[C@@H]([C@@H](C)O)C(=O)N1)C(=O)O [^111In-DOTATATE, metal not drawn]
tissue uptake at 10 min (0.03 nmol, uptake in Adrenals): 3.4 ± 2.3 %ID/g
tissue uptake at 0.5 h (0.03 nmol, uptake in Adrenals): 4.7 ± 4.4 %ID/g
tissue uptake at 1 h (0.03 nmol, uptake in Adrenals): 4.6 ± 5.6 %ID/g
tissue uptake at 0.05 h (0.03 nmol, uptake in Kidney): 19.2 ± 8.4 %ID/g
tissue uptake at 10 min (0.03 nmol, uptake in Kidney): 16 ± 4.1 %ID/g
tissue uptake at 0.5 h (0.03 nmol, uptake in Kidney): 14 ± 4.1 %ID/g
tissue uptake at 1 h (0.03 nmol, uptake in Kidney): 12.3 ± 3.7 %ID/g
tissue uptake at 0.05 h (0.03 nmol, uptake in Muscles): 1.2 ± 0.7 %ID/g
tissue uptake at 10 min (0.03 nmol, uptake in Muscles): 0.9 ± 0.3 %ID/g
tissue uptake at 0.5 h (0.03 nmol, uptake in Muscles): 0.3 ± 0.1 %ID/g
tissue uptake at 1 h (0.03 nmol, uptake in Muscles): 0.07 %ID/g
tissue uptake at 0.05 h (0.03 nmol, uptake in Pancreas): 6 ± 1.5 %ID/g
tissue uptake at 10 min (0.03 nmol, uptake in Pancreas): 1.6 ± 1.4 %ID/g
tissue uptake at 0.5 h (0.03 nmol, uptake in Pancreas): 4.7 ± 2.7 %ID/g
tissue uptake at 1 h (0.03 nmol, uptake in Pancreas): 9.2 ± 1.9 %ID/g
tissue uptake at 0.05 h (0.03 nmol, uptake in Pituitary): 1 ± 1.7 %ID/g
tissue uptake at 10 min (0.03 nmol, uptake in Pituitary): 0.2 ± 0.2 %ID/g
tissue uptake at 0.5 h (0.03 nmol, uptake in Pituitary): 0.5 ± 0.8 %ID/g
tissue uptake at 1 h (0.03 nmol, uptake in Pituitary): < 0.05 %ID/g
tissue uptake at 0.05 h (0.03 nmol, uptake in Plasma): 13.3 ± 1.6 %ID/g
tissue uptake at 0.5 h (0.03 nmol, uptake in Plasma): 3.2 ± 1 %ID/g
tissue uptake at 1 h (0.03 nmol, uptake in Plasma): 0.8 ± 0.1 %ID/g
tissue uptake at 0.05 h [1]: 3.5 ± 2.5 %ID/g
tissue uptake at 0.5 h [1]: 0.6 ± 0.2 %ID/g
tissue uptake at 1 h [1]: 0.3 ± 0.08 %ID/g
tissue uptake at 0.05 h (0.03 nmol, uptake in Stomach): 5.6 ± 0.7 %ID/g
tissue uptake at 10 min (0.03 nmol, uptake in Stomach): 7.9 ± 2.2 %ID/g
tissue uptake at 0.5 h (0.03 nmol, uptake in Stomach): 8.1 ± 1.3 %ID/g
tissue uptake at 1 h (0.03 nmol, uptake in Stomach): 7.6 ± 1.1 %ID/g
tissue uptake at 0.05 h (0.03 nmol, uptake in Tumor): 6.9 ± 3.6 %ID/g
tissue uptake at 10 min (0.03 nmol, uptake in Tumor): 10.7 ± 2.5 %ID/g
tissue uptake at 0.5 h (0.03 nmol, uptake in Tumor): 15.1 ± 7.5 %ID/g
tissue uptake at 1 h (0.03 nmol, uptake in Tumor): 12.8 ± 6.7 %ID/g
tissue uptake at 1 h (0.1 nmol, uptake in Adrenals): 1.3 ± 0.2 %ID/g
tissue uptake at 0.05 h (0.1 nmol, uptake in Kidney): 21.6 ± 3.9 %ID/g
tissue uptake at 10 min (0.1 nmol, uptake in Kidney): 15.6 ± 3.1 %ID/g
tissue uptake at 0.5 h (0.1 nmol, uptake in Kidney): 16.1 ± 5.5 %ID/g
tissue uptake at 1 h (0.1 nmol, uptake in Kidney): 16.7 ± 8.6 %ID/g
tissue uptake at 0.05 h (0.1 nmol, uptake in Muscles): 1.5 ± 0.6 %ID/g
tissue uptake at 10 min (0.1 nmol, uptake in Muscles): 0.7 ± 0.2 %ID/g
tissue uptake at 0.5 h (0.1 nmol, uptake in Muscles): 0.4 ± 0.4 %ID/g
tissue uptake at 1 h (0.1 nmol, uptake in Muscles): 0.3 ± 0.4 %ID/g
tissue uptake at 0.05 h (0.1 nmol, uptake in Pancreas): 11.9 ± 4 %ID/g
tissue uptake at 10 min (0.1 nmol, uptake in Pancreas): 9.9 ± 4.2 %ID/g
tissue uptake at 0.5 h (0.1 nmol, uptake in Pancreas): 7 ± 1.4 %ID/g
tissue uptake at 1 h (0.1 nmol, uptake in Pancreas): 4.7 ± 0.5 %ID/g
tissue uptake at 0.05 h (0.1 nmol, uptake in Pituitary): 0.3 ± 0.2 %ID/g
tissue uptake at 10 min (0.1 nmol, uptake in Pituitary): 0.2 ± 0.09 %ID/g
tissue uptake at 0.5 h (0.1 nmol, uptake in Pituitary): 0.1 ± 0.2 %ID/g
tissue uptake at 1 h (0.1 nmol, uptake in Pituitary): < 0.05 %ID/g
tissue uptake at 0.05 h (0.1 nmol, uptake in Plasma): 13.2 ± 1.7 %ID/g
tissue uptake at 10 min (0.1 nmol, uptake in Plasma): 8.6 ± 1.4 %ID/g
tissue uptake at 0.5 h (0.1 nmol, uptake in Plasma): 3.4 ± 1.7 %ID/g
tissue uptake at 1 h (0.1 nmol, uptake in Plasma): 1 ± 0.6 %ID/g
tissue uptake at 0.05 h [2]: 5.2 ± 0.7 %ID/g
tissue uptake at 0.5 h [2]: 0.8 ± 0.4 %ID/g
tissue uptake at 1 h [2]: 0.2 ± 0.1 %ID/g
tissue uptake at 0.05 h (0.1 nmol, uptake in Stomach): 4.4 ± 1.1 %ID/g
tissue uptake at 10 min (0.1 nmol, uptake in Stomach): 5.2 ± 1.1 %ID/g
tissue uptake at 0.5 h (0.1 nmol, uptake in Stomach): 6.3 ± 2 %ID/g
tissue uptake at 1 h (0.1 nmol, uptake in Stomach): 6 ± 1.8 %ID/g
tissue uptake at 10 min (0.1 nmol, uptake in Tumor): 11.8 ± 3.6 %ID/g
tissue uptake at 1 h (0.1 nmol, uptake in Tumor): 9.9 ± 2.6 %ID/g
tissue uptake at 0.05 h (0.3 nmol, uptake in Adrenals): 2.3 ± 0.6 %ID/g
tissue uptake at 10 min (0.3 nmol, uptake in Adrenals): 1.2 ± 0.4 %ID/g
tissue uptake at 0.5 h (0.3 nmol, uptake in Adrenals): 1 ± 0.1 %ID/g
tissue uptake at 1 h (0.3 nmol, uptake in Adrenals): 0.8 ± 0.3 %ID/g
tissue uptake at 0.05 h (0.3 nmol, uptake in Kidney): 17.2 ± 5.4 %ID/g
tissue uptake at 10 min (0.3 nmol, uptake in Kidney): 12.8 ± 2.2 %ID/g
tissue uptake at 0.5 h (0.3 nmol, uptake in Kidney): 16.9 ± 6.3 %ID/g
tissue uptake at 1 h (0.3 nmol, uptake in Kidney): 13.4 ± 2.8 %ID/g
tissue uptake at 0.05 h (0.3 nmol, uptake in Muscles): 1.1 ± 0.1 %ID/g
tissue uptake at 10 min (0.3 nmol, uptake in Muscles): 0.5 ± 0.1 %ID/g
tissue uptake at 0.5 h (0.3 nmol, uptake in Muscles): 0.3 ± 0.1 %ID/g
tissue uptake at 1 h (0.3 nmol, uptake in Muscles): < 0.05 %ID/g
tissue uptake at 10 min (0.3 nmol, uptake in Pancreas): 3.5 ± 0.3 %ID/g
tissue uptake at 0.5 h (0.3 nmol, uptake in Pancreas): 3.2 ± 0.4 %ID/g
tissue uptake at 1 h (0.3 nmol, uptake in Pancreas): 3 ± 1 %ID/g
tissue uptake at 0.05 h (0.3 nmol, uptake in Pituitary): 0.3 %ID/g
tissue uptake at 10 min (0.3 nmol, uptake in Pituitary): 0.2 ± 0.05 %ID/g
tissue uptake at 0.5 h (0.3 nmol, uptake in Pituitary): 0.1 %ID/g
tissue uptake at 1 h (0.3 nmol, uptake in Pituitary): < 0.05 %ID/g
tissue uptake at 0.05 h (0.3 nmol, uptake in Plasma): 13.4 ± 1.4 %ID/g
tissue uptake at 10 min (0.3 nmol, uptake in Plasma): 7.2 ± 2 %ID/g
tissue uptake at 0.5 h (0.3 nmol, uptake in Plasma): 3.4 ± 0.5 %ID/g
tissue uptake at 1 h (0.3 nmol, uptake in Plasma): 0.7 ± 0.2 %ID/g
tissue uptake at 0.05 h [3]: 2.6 ± 0.6 %ID/g
tissue uptake at 10 min [3]: 1.3 ± 0.4 %ID/g
tissue uptake at 0.5 h [3]: 0.6 ± 0.1 %ID/g
tissue uptake at 1 h [3]: < 0.05 %ID/g
tissue uptake at 10 min (0.3 nmol, uptake in Stomach): 3.9 ± 0.4 %ID/g
tissue uptake at 0.5 h (0.3 nmol, uptake in Stomach): 3.5 ± 0.2 %ID/g
tissue uptake at 1 h (0.3 nmol, uptake in Stomach): 3.4 ± 0.8 %ID/g
tissue uptake at 10 min (0.3 nmol, uptake in Tumor): 8 ± 1.2 %ID/g
tissue uptake at 0.5 h (0.3 nmol, uptake in Tumor): 9.9 ± 3 %ID/g
tissue uptake at 1 h (0.3 nmol, uptake in Tumor): 9.9 ± 0.7 %ID/g
tissue uptake at 0.5 h (1 nmol, uptake in Adrenals): 0.5 ± 0.09 %ID/g
tissue uptake at 1 h (1 nmol, uptake in Adrenals): 0.5 ± 0.05 %ID/g
tissue uptake at 0.05 h (1 nmol, uptake in Kidney): 17.5 ± 9.7 %ID/g
tissue uptake at 10 min (1 nmol, uptake in Kidney): 14.2 ± 7 %ID/g
tissue uptake at 0.5 h (1 nmol, uptake in Kidney): 6 ± 1.8 %ID/g
tissue uptake at 1 h (1 nmol, uptake in Kidney): 14.1 ± 3.4 %ID/g
tissue uptake at 0.05 h (1 nmol, uptake in Muscles): 1.2 ± 0.4 %ID/g
tissue uptake at 10 min (1 nmol, uptake in Muscles): 1 ± 0.5 %ID/g
tissue uptake at 0.5 h (1 nmol, uptake in Muscles): 0.2 ± 0.09 %ID/g
tissue uptake at 1 h (1 nmol, uptake in Muscles): < 0.05 %ID/g
tissue uptake at 0.05 h (1 nmol, uptake in Pancreas): 3.5 ± 2.4 %ID/g
tissue uptake at 0.5 h (1 nmol, uptake in Pancreas): 0.7 ± 0.2 %ID/g
tissue uptake at 1 h (1 nmol, uptake in Pancreas): 1.5 ± 0.3 %ID/g
tissue uptake at 0.05 h (1 nmol, uptake in Pituitary): 0.1 ± 0.09 %ID/g
tissue uptake at 10 min (1 nmol, uptake in Pituitary): 0.8 ± 1.4 %ID/g
tissue uptake at 0.5 h (1 nmol, uptake in Pituitary): < 0.05 %ID/g
tissue uptake at 1 h (1 nmol, uptake in Pituitary): < 0.05 %ID/g
tissue uptake at 0.05 h (1 nmol, uptake in Plasma): 11.3 ± 4.9 %ID/g
tissue uptake at 10 min (1 nmol, uptake in Plasma): 7.6 ± 3.1 %ID/g
tissue uptake at 1 h (1 nmol, uptake in Plasma): 0.6 ± 0.2 %ID/g
tissue uptake at 0.05 h [4]: 2.3 ± 0.4 %ID/g
tissue uptake at 10 min [4]: 1.3 ± 0.5 %ID/g
tissue uptake at 0.5 h [4]: 0.3 ± 0.1 %ID/g
tissue uptake at 1 h [4]: 0.4 ± 0.1 %ID/g
tissue uptake at 0.05 h (1 nmol, uptake in Stomach): 2.4 ± 1.1 %ID/g
tissue uptake at 0.5 h (1 nmol, uptake in Stomach): 0.8 ± 0.2 %ID/g
tissue uptake at 0.05 h (1 nmol, uptake in Tumor): 5.6 ± 2 %ID/g
tissue uptake at 10 min (1 nmol, uptake in Tumor): 6.7 ± 2.9 %ID/g
tissue uptake at 0.5 h (1 nmol, uptake in Tumor): 2.9 ± 0.6 %ID/g
tissue uptake at 1 h (1 nmol, uptake in Tumor): 7 ± 1.1 %ID/g
tissue uptake at 10 min (3 nmol, uptake in Adrenals): 1.1 ± 0.7 %ID/g
tissue uptake at 0.5 h (3 nmol, uptake in Adrenals): 0.6 ± 0.2 %ID/g
tissue uptake at 1 h (3 nmol, uptake in Adrenals): 0.3 ± 0.06 %ID/g
tissue uptake at 0.05 h (3 nmol, uptake in Kidney): 19.1 ± 3.1 %ID/g
tissue uptake at 10 min (3 nmol, uptake in Kidney): 14.6 ± 2.9 %ID/g
tissue uptake at 0.5 h (3 nmol, uptake in Kidney): 14.5 ± 1.1 %ID/g
tissue uptake at 1 h (3 nmol, uptake in Kidney): 14.7 ± 2.1 %ID/g
tissue uptake at 0.05 h (3 nmol, uptake in Muscles): 1.3 ± 0.3 %ID/g
tissue uptake at 10 min (3 nmol, uptake in Muscles): 0.8 ± 0.3 %ID/g
tissue uptake at 0.5 h (3 nmol, uptake in Muscles): 0.3 ± 0.1 %ID/g
tissue uptake at 1 h (3 nmol, uptake in Muscles): < 0.05 %ID/g
tissue uptake at 0.05 h (3 nmol, uptake in Pancreas): 2.2 ± 0.4 %ID/g
tissue uptake at 10 min (3 nmol, uptake in Pancreas): 1.6 ± 0.2 %ID/g
tissue uptake at 0.5 h (3 nmol, uptake in Pancreas): 1 ± 0.2 %ID/g
tissue uptake at 1 h (3 nmol, uptake in Pancreas): 0.8 ± 1 %ID/g
tissue uptake at 0.05 h (3 nmol, uptake in Pituitary): 0.2 ± 0.06 %ID/g
tissue uptake at 10 min (3 nmol, uptake in Pituitary): 0.1 ± 0.06 %ID/g
tissue uptake at 0.5 h (3 nmol, uptake in Pituitary): 0.08 ± 0.06 %ID/g
tissue uptake at 1 h (3 nmol, uptake in Pituitary): < 0.05 %ID/g
tissue uptake at 0.05 h (3 nmol, uptake in Plasma): 13.8 ± 1.7 %ID/g
tissue uptake at 10 min (3 nmol, uptake in Plasma): 8.4 ± 0.9 %ID/g
tissue uptake at 1 h (3 nmol, uptake in Plasma): 0.6 ± 0.2 %ID/g
tissue uptake at 10 min [5]: 2.4 ± 0.3 %ID/g
tissue uptake at 0.5 h [5]: 0.6 ± 0.2 %ID/g
tissue uptake at 1 h [5]: < 0.05 %ID/g
tissue uptake at 0.05 h (3 nmol, uptake in Stomach): 3.2 ± 0.5 %ID/g
tissue uptake at 10 min (3 nmol, uptake in Stomach): 2.3 ± 0.2 %ID/g
tissue uptake at 0.5 h (3 nmol, uptake in Stomach): 1.5 ± 0.6 %ID/g
tissue uptake at 1 h (3 nmol, uptake in Stomach): 1.6 ± 0.7 %ID/g
tissue uptake at 0.05 h (3 nmol, uptake in Tumor): 2.9 ± 1.1 %ID/g
